Assay results from patent publication US6645733B1, “Fluorescent intensity method for assaying binding between proteins or peptides” (Ingeneus Corporation, priority 1999, dated 2003).
No end group written: not given here. fluorescein = fluorescein label at the amino-terminal end; Flu = fluorescein

T1: human AT1 receptor (Homo sapiens, UniProt P30556)
T1 construct: purchased NEN Life Science Products Inc., Boston, Mass; host or cells: Chinese hamster ovary (CHO) cells, purified membrane preparation
T1 sequence (P30556 1-359): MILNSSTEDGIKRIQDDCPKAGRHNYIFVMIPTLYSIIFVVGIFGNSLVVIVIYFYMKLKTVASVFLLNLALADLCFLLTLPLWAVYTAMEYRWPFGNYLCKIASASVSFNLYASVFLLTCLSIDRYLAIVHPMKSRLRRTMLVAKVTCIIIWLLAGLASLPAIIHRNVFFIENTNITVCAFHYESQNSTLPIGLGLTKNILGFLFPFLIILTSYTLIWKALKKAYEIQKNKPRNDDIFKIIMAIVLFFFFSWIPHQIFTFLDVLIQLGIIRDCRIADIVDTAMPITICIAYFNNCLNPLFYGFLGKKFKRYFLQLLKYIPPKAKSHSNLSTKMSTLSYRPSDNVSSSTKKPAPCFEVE

T2: Cloned human angiotensin II AT1 receptor (purified membrane preparation derived from CHO cells) (human, UniProt P30556 1-359)
T2 construct: whole, on cells; Used as a membrane preparation, not intact cells; also called human AT1 receptor
T2 sequence (looked up): T1 sequence (P30556 1-359)

B1: Mutant angiotensin II fragment containing the first five amino acid residues of wildtype AII, labeled with fluorescein at its amino-terminus [Flu-AII(1-5)] (peptide)
peptide: Flu-DRVYI
notes: Synthesized by AnaSpec; also called mutant Flu-AII(1-5); mutant Flu-AII

Assays:
[1] = target: T1, human AT1 receptor; experiment: Flu-AII:AT1 fluorescent intensity quenching binding assay; details: 0.005, 0.01, 0.02 and 0.05 units AT1 receptor, 10 nM probe
[2] = target: T2, Cloned human angiotensin II AT1 …; experiment: fluorescence intensity quenching assay in solution

Molecule	binding to AT1 receptor (fluorescent intensity versus probe alone) [1]	binding result [2]
Flu-Asp-Arg-Val-Tyr-Ile (fluorescein-DRVYI) [Flu-AII(1-5)]	did not bind	
B1		no binding
